This note sets out measurements from paper PMC10776578, “Epstein-Barr virus-driven B cell lymphoma mediated by a direct LMP1-TRAF6 complex” (Nature Communications, 2024).

“Also recorded” adds a separate entry of the source.

One assay has as its system GST-LMP1_181-386. The assay can be described thus: AlphaScreen PPI, TRAF6 mutants binding to LMP1. Further details: species or system Epstein-Barr virus; TRAF6 binding to LMP1 (AlphaScreen), mean: unit not given here. As to the method: (§1) Fig. 2 LMP1 binds to the receptor-interacting surface of TRAF6. a Mutations within the receptor-interacting surface of TRAF6 affect binding to LMP1. The TRAF6 mutants R392A, K469A, F471A, and Y473A were tested LMP1 in AlphaScreen PPI experiments with GST-LMP1_181-386. Data are mean values ± SD of three independent experiments. Statistics: one-way ANOVA. b TRAF6 R392A differentiates between CD40 and LMP1/RANK. AlphaScreen PPI experiments with GST-CD40_216-277. Data are mean values ± SD of three independent experiments. […] AlphaScreen PPI experiments with GST-RANK314-355. Data are mean values ± SD of four independent experiments. Statistics: one-way ANOVA. d TRAF6 mutants that fail to interact with LMP1 in PPI assays are also unable to bind cellular LMP1. HEK293 cells were co-transfected with HA-LMP1 and the indicated Flag-TRAF6 mutants. Flag-TRAF6 was immunoprecipitated (IP) via its Flag-tag and coprecipitated HA-LMP1 was detected on immunoblots by an α-HA antibody. Uncropped blots in Supplementary Fig. 6b. For statistical analysis LMP1 signals were digitalized and quantified (graph). Data are mean values ± SD of three independent experiments. […] TRAF6 recruitment is dependent on amino acids 371 − 386 of LMP1 (small panel). Confocal microscopy images show representative cells of three independent experiments. Quantitative data are mean values ± SD of ten randomly selected cells per transfection of one representative experiment (graph). Scale bars: 10 µm. Statistics: one-way ANOVA. p-values: *p ≤ 0.05, **p ≤ 0.01, ***p ≤ 0.001, ****p ≤ 0.0001. Source data and exact p-values in the Source Data file.
(§2) AlphaScreen experiments were performed in 96- or 384-well plates (Perkin Elmer, OptiPlate). In both assay formats, His-TRAF and GST-LMP1, GST-CD40, or GST-RANK proteins were incubated together in 40 µL of PBS (protein concentrations were calculated to the final reaction volume of 60 µL) supplemented with 0.5% BSA (Sigma, #A7030) and 0.1% Tween-20 (AppliChem, #A4974), for 1 h at room temperature (RT). If not indicated otherwise, standard protein concentrations were 300 nM for His-TRAF proteins and 100 nM for GST-LMP1 proteins. Ni-NTA-acceptor (Perkin Elmer, #6760619 C) and GST-acceptor (Perkin Elmer, # 6765300) beads were added each to a final concentration of 1–4 µg per mL in a final reaction volume of 60 µL and incubated for 1 h at RT in the dark. AlphaScreen PPI signals were measured in a CLARIOstar reader (BMG Labtech GmbH).

The subject of the next assay is GST-CD40_216-277. The assay can be described thus: AlphaScreen PPI, TRAF6 mutants binding to CD40. Further details: species or system human; TRAF6 binding to CD40 (AlphaScreen), mean: unit not given here. How it is done: as §1, §2
In a further assay the test system is HA-LMP1. The assay can be described thus: Confocal immunofluorescence colocalization of Flag-TRAF6 with HA-LMP1 in HeLa cells. Format: cell-based, Epstein-Barr virus.
The subject of another assay is NF-κB in TRAF6^-/- MEFs. The assay can be described thus: NF-κB reporter assay, TRAF6 rescue of CTAR2 signalling. It is filed as cell-based, mouse. Further details: unit not given here. As to the method:
TRAF6^−/− cells (6 × 10^4) were seeded per well of a 6-well plate in DMEM full medium the day before transfection. Cells were transfected with 2 µg of the indicated pCMV-HA-LMP1 plasmids together with 0.5 µg of pRK5-Flag-TRAF6 plasmids or empty vector, 0.05 µg of NF-κB luciferase reporter 3xκB-Luc and 0.2 µg of pPGK-Renilla housekeeping control reporter using the PolyFect transfection reagent (Qiagen)[33]. After 4 h the transfection mix was removed, and the cells were kept overnight in DMEM full medium. NF-κB reporter and Renilla control activities were measured with the Dual-Luciferase reporter assay kit (Promega, #E1910) following the manufacturer’s instructions. Samples of each lysate were analyzed for LMP1 and TRAF6 expression by immunoblotting.

B1: Y473A (protein, UniProt Q9Y4K3 1-522, looked up, variant Y473A)
TNF receptor-associated …: MSLLNCENSCGSSQSESDCCVAMASSCSAVTKDDSVGGTASTGNLSSSFMEEIQGYDVEFDPPLESKYECPICLMALREAVQTPCGHRFCKACIIKSIRDAGHKCPVDNEILLENQLFPDNFAKREILSLMVKCPNEGCLHKMELRHLEDHQAHCEFALMDCPQCQRPFQKFHINIHILKDCPRRQVSCDNCAASMAFEDKEIHDQNCPLANVICEYCNTILIREQMPNHYDLDCPTAPIPCTFSTFGCHEKMQRNHLARHLQENTQSHMRMLAQAVHSLSVIPDSGYISEVRNFQETIHQLEGRLVRQDHQIRELTAKMETQSMYVSELKRTIRTLEDKVAEIEAQQCNGIYIWKIGNFGMHLKCQEEEKPVVIHSPGFYTGKPGYKLCMRLHLQLPTAQRCANYISLFVHTMQGEYDSHLPWPFQGTIRLTILDQSEAPVRQNHEEIMDAKPELLAFQRPTIPRNPKGFGAVTFMHLEALRQRTFIKDDTLLVRCEVSTRFDMGSLRREGFQPRSTDAGV
In the case of B1, the “effect of TRAF6 mutation on binding to LMP1 (in words)” value in the assay with GST-LMP1_181-386 (AlphaScreen PPI) is “complete loss of TRAF6 binding”. In addition, in the assay with GST-LMP1_181-386 (Figure 2a, mean of n = 3), the “TRAF6 binding to LMP1 (AlphaScreen), mean” value amounted to 1.355. For the same molecule, the “TRAF6 binding to LMP1 (AlphaScreen)” value with GST-LMP1_181-386 (Figure 2a, relative to mean wt 100, replicate 1) is on record as 0.9; with GST-LMP1_181-386 (Figure 2a, replicate 2), 1.6; in the assay on GST-LMP1_181-386 (Figure 2a, replicate 3), 1.5. For the same molecule, in the assay on GST-CD40_216-277 (AlphaScreen PPI), the “effect of TRAF6 mutation on binding to CD40 (in words)” value is “complete loss of TRAF6 binding”. Moreover, in the assay on GST-CD40_216-277 (Figure 2b, mean of n = 3), the “TRAF6 binding to CD40 (AlphaScreen), mean” value is on record as 0.5871. Besides, the “TRAF6 binding to CD40 (AlphaScreen)” value in the assay with GST-CD40_216-277 (Figure 2b, relative to mean wt 100, replicate 1) came to 0.7; with GST-CD40_216-277 (Figure 2b, replicate 2), 0.5; in the assay with GST-CD40_216-277 (Figure 2b, replicate 3) it was 0.5. Further, in the assay on HA-LMP1 (confocal microscopy), the “colocalization with HA-LMP1 (in words)” value is reported as “fail to interact with LMP1 wild-type clusters; also recorded: strongly decreased colocalization with HA-LMP1”. The “colocalization of TRAF6 with LMP1, mean” value with HA-LMP1 (mean of ten cells) is recorded as 24.45. In addition, the NF-κB reporter activity in the assay on NF-κB in TRAF6^-/- MEFs (with A204xAxA (CTAR2-specific signalling), replicate 1) was determined as 17.9; in the assay on NF-κB in TRAF6^-/- MEFs (with A204xAxA, replicate 2) it was 12.1; with NF-κB in TRAF6^-/- MEFs (with A204xAxA, replicate 3) it was 18.2; in the assay with NF-κB in TRAF6^-/- MEFs (with A204xAxA, replicate 4), 20.7; in the assay on NF-κB in TRAF6^-/- MEFs (with A204xAxA, replicate 5), 14.7; with NF-κB in TRAF6^-/- MEFs (with A204xAxA/∆371-386 (inactive null control), replicate 1), 21.7. Moreover, the NF-κB reporter activity in the assay on NF-κB in TRAF6^-/- MEFs (with A204xAxA/∆371-386, replicate 2) was determined as 12.1; with NF-κB in TRAF6^-/- MEFs (with A204xAxA/∆371-386, replicate 3), 17.7; in the assay with NF-κB in TRAF6^-/- MEFs (with A204xAxA/∆371-386, replicate 4), 21.8; in the assay on NF-κB in TRAF6^-/- MEFs (with A204xAxA/∆371-386, replicate 5) it was 14.3. In addition, the “NF-κB reporter activity, mean” value in the assay with NF-κB in TRAF6^-/- MEFs (with A204xAxA, mean of n = 5) is reported as 16.74; in the assay with NF-κB in TRAF6^-/- MEFs (with A204xAxA/∆371-386, mean of n = 5) it was 17.54.
